Test results published in US20130030156A1 (Merck Sharp & Dohme, published 2013).

Target: T1, human ILT5 on the surface of human peripheral blood cells (human, UniProt O75022 24-631)
T1 construct: whole, on cells; Endogenous ILT5 on primary human cells; also called surface ILT5; hILT5
Experiment: flow cytometry, TRX585 staining of human PBMCs
Description: The latter plots show the levels of two fluorescent parameters (i.e., fluorescent antibodies) on various cell subpopulations, quantitate the proportions of cells displaying these parameters, and indicate the frequency of cells present at each point in the plot. Here, peripheral blood mononuclear cells (PBMCs) from a healthy human donor were stained with the TRX585 antibody as well as antibodies specific for the indicated cell subset. In FIG. 1A, plots depict ILT5 (TRX585) expression by gated CD56⁻CD3⁺CD4⁺ or CD56⁻CD3⁺CD8⁺ T cells. In FIG. 1B, PBMCs were stained as in (A) and subsequently stained for intracellular Foxp3. Plots show ILT5 expression by gated CD56⁻CD3⁺CD4⁺Foxp3⁺ or CD56⁻ CD3⁺CD4⁺Foxp3⁻ T cells. […] Percentages of gated cells and mean fluorescence intensity of the ILT5-staining of ILT5⁺ cells are depicted inside and above plots, respectively. […]
Peripheral blood mononuclear cells (PBMCs) from healthy human blood donors were stained with a murine monoclonal antibody (TRX585) comprising a heavy chain variable region comprising the amino acid sequence of SEQ ID NO: 2 or SEQ ID NO: 3, and a light chain variable region comprising the amino acid sequence of SEQ ID NO: 1. […] PBMCs were also stained with antibodies specific for defined hematopoietic cell lineages and analyzed for ILT5 expression by flow cytometry.

T1 sequence (O75022 24-631): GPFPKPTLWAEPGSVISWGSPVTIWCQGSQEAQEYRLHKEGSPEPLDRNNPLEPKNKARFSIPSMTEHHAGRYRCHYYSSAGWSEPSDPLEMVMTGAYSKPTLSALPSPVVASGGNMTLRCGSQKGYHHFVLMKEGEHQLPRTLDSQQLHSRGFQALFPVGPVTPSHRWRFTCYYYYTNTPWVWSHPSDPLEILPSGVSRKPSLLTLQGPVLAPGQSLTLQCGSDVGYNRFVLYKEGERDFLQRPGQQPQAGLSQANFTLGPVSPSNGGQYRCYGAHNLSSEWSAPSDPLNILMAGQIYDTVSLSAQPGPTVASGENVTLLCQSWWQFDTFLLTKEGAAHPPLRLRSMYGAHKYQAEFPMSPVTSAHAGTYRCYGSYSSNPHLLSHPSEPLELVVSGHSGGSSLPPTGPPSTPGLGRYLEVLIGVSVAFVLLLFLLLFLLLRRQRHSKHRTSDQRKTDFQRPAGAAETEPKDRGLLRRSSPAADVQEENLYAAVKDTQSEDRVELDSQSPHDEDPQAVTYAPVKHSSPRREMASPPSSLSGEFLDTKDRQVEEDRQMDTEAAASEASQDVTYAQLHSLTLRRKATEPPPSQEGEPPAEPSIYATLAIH

B1: TRX585 (8G6 mAb), mouse anti-human ILT5 monoclonal antibody (antibody, V domains shown)
VH: DVQLQESGPGLVKPSQSLFLTCSVTGYSISSSYYWNWIRQFPGNKLEWMGYISFDGSNNYNPSLKNRISITRDTSKNQFFLKLNSVTTEDTATYYCAREKENYYGSSFYYFDYWGLGTSLTVSS
VL: DIQMTQSPASLSVSVGETVTITCRASENIYSNLAWYQQKQGKSPQVLVYAATNLADGVPSRFSGSGSGTQFSLKINSLQSEDFGNYFCQHFWRIPWTFGGGTKLEIK
notes: Murine monoclonal antibody, IgG1, kappa, purified from hybridoma supernatant; also called TRX585 antibody; TRX585 mAb
B1: binds.
